This note sets out measurements from patent US20190153061A1.

For the assay, the target named is B-cell maturation antigen (BCMA) expressed on cells (human), Q02223. The experiment in a line: cell-based or functional assay.
Chain of B-cell maturation antigen (BCMA) expressed on cells (human), Q02223 (Q02223 whole entry): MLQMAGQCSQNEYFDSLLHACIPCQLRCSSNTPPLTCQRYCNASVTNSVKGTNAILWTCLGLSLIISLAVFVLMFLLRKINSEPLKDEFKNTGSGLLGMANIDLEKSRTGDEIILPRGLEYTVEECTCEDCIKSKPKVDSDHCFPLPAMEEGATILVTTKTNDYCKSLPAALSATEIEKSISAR

B1: BCMA-1 CAR (139100) (protein)
chain: QVQLVQSGAEVRKTGASVKVSCKASGYIFDNFGINWVRQAPGQGLEWMGWINPKNNNTNYAQKFQGRVTITADESTNTAYMEVSSLRSEDTAVYYCARGPYYYQSYMDVWGQGTMVTVSSASGGGGSGGRASGGGGSDIVMTQTPLSLPVTPGEPASISCRSSQSLLHSNGYNYLNWYLQKPGQSPQLLIYLGSKRASGVPDRFSGSGSGTDFTLHITRVGAEDVGVYYCMQALQTPYTFGQGTKLEIKTTTPAPRPPTPAPTIASQPLSLRPEACRPAAGGAVHTRGLDFACDIYIWAPLAGTCGVLLLSLVITLYCKRGRKKLLYIFKQPFMRPVQTTQEEDGCSCRFPEEEEGGCELRVKFSRSADAPAYKQGQNQLYNELNLGRREEYDVLDKRRGRDPEMGGKPRRKNPQEGLYNELQKDKMAEAYSEIGMKGERRRGKGHDGLYQGLSTATKDTYDALHMQALPPR
Take B1: the Cell killing EC50; KMS11-luc turned out to be 0.68 not printed; the JNL binding assay, ratio to K562; K562-BCMA was found to be 4.6; the JNL binding assay, ratio to K562; NCI-H929 is 4.55; the JNL binding assay, ratio to K562; RPMI 8226 came out at 5.06. Also, the Proliferation, CD3 ratio to no target; K562-BCMA is 1.59; the Proliferation, CD3 ratio to no target; KMS11-luc stood at 1.38; the Proliferation, CD3 ratio to no target; NCI-H929 was 4.97; the Proliferation, CD3 ratio to no target; RPMI 8226 was 2.96. In addition, the Proliferation, CD4 ratio to no target; K562-BCMA amounted to 1.57; the Proliferation, CD4 ratio to no target; KMS11-luc came out at 1.24; the Proliferation, CD4 ratio to no target; NCI-H929 came to 5.57; the Proliferation, CD4 ratio to no target; RPMI 8226 came to 2.43. Besides, the Proliferation, CD8 ratio to no target; K562-BCMA was determined as 1.61; the Proliferation, CD8 ratio to no target; KMS11-luc came to 1.56; the Proliferation, CD8 ratio to no target; NCI-H929 was 4.14; the Proliferation, CD8 ratio to no target; RPMI 8226 was found to be 3.58.

B2: BCMA-4NP tool CAR (126021) (protein, not shown: a dimerising Fc or GST)
chain: QVQLVQSGAEVKKPGSSVKVSCKASGGTFSNYWMHWVRQAPGQGLEWMGATYRGHSDTYYNQKFKGRVTITADKSTSTAYMELSSLRSEDTAVYYCARGAIYNGYDVLDNWGQGTLVTVSSGGGGSGGGGSGGGGSGGGGSDIQMTQSPSSLSASVGDRVTITCSASQDISNYLNWYQQKPGKAPKLLIYYTSNLHSGVPSRFSGSGSGTDFTLTISSLQPEDFATYYCQQYRKLPWTFGQGTKLEIKR
Turning to B2, the Cell killing EC50; KMS11-luc stood at 0.12 not printed; the JNL binding assay, ratio to K562; K562-BCMA is 3.15; the JNL binding assay, ratio to K562; NCI-H929 was found to be 2.27; the JNL binding assay, ratio to K562; RPMI 8226 came to 3.54. Besides, the Proliferation, CD3 ratio to no target; K562-BCMA turned out to be 5.52; the Proliferation, CD3 ratio to no target; KMS11-luc came to 5.41; the Proliferation, CD3 ratio to no target; NCI-H929 came out at 6.52; the Proliferation, CD3 ratio to no target; RPMI 8226 amounted to 5.83. The Proliferation, CD4 ratio to no target; K562-BCMA was found to be 8.5; the Proliferation, CD4 ratio to no target; KMS11-luc was found to be 5.54; the Proliferation, CD4 ratio to no target; NCI-H929 was determined as 8.98; the Proliferation, CD4 ratio to no target; RPMI 8226 is 8.5. Also, the Proliferation, CD8 ratio to no target; K562-BCMA stood at 3.06; the Proliferation, CD8 ratio to no target; KMS11-luc was found to be 5.2; the Proliferation, CD8 ratio to no target; NCI-H929 stood at 4.31; the Proliferation, CD8 ratio to no target; RPMI 8226 was 3.49.

B3: BCMA-14 CAR (139113) (protein)
chain: EVQLVETGGGLVQPGGSLRLSCAVSGFALSNHGMSWVRRAPGKGLEWVSGIVYSGSTYYAASVKGRFTISRDNSRNTLYLQMNSLRPEDTAIYYCSAHGGESDVWGQGTTVTVSSASGGGGSGGRASGGGGSETTLTQSPATLSVSPGERATLSCRASQSVGSNLAWYQQKPGQGPRLLIYGASTRATGIPARFSGSGSGTEFTLTISSLQPEDFAVYYCQQYNDWLPVTFGQGTKVEIKTTTPAPRPPTPAPTIASQPLSLRPEACRPAAGGAVHTRGLDFACDIYIWAPLAGTCGVLLLSLVITLYCKRGRKKLLYIFKQPFMRPVQTTQEEDGCSCRFPEEEEGGCELRVKFSRSADAPAYKQGQNQLYNELNLGRREEYDVLDKRRGRDPEMGGKPRRKNPQEGLYNELQKDKMAEAYSEIGMKGERRRGKGHDGLYQGLSTATKDTYDALHMQALPPR
In the case of B3, the Cell killing EC50; KMS11-luc amounted to 0.12 not printed; the JNL binding assay, ratio to K562; K562-BCMA turned out to be 2.81; the JNL binding assay, ratio to K562; NCI-H929 was 2.65; the JNL binding assay, ratio to K562; RPMI 8226 amounted to 3.31. The Proliferation, CD3 ratio to no target; K562-BCMA came to 4.12; the Proliferation, CD3 ratio to no target; KMS11-luc came to 3.42; the Proliferation, CD3 ratio to no target; NCI-H929 turned out to be 3.86; the Proliferation, CD3 ratio to no target; RPMI 8226 worked out at 3.93. Besides, the Proliferation, CD4 ratio to no target; K562-BCMA stood at 5.73; the Proliferation, CD4 ratio to no target; KMS11-luc stood at 3.97; the Proliferation, CD4 ratio to no target; NCI-H929 was 5.07; the Proliferation, CD4 ratio to no target; RPMI 8226 was 4.84. The Proliferation, CD8 ratio to no target; K562-BCMA turned out to be 2.65; the Proliferation, CD8 ratio to no target; KMS11-luc worked out at 2.83; the Proliferation, CD8 ratio to no target; NCI-H929 was 2.73; the Proliferation, CD8 ratio to no target; RPMI 8226 stood at 3.03.

B4: BCMA-15 CAR (139114) (protein)
chain: EVQLVESGGGLVQPGGSLRLSCAVSGFALSNHGMSWVRRAPGKGLEWVSGIVYSGSTYYAASVKGRFTISRDNSRNTLYLQMNSLRPEDTAIYYCSAHGGESDVWGQGTTVTVSSASGGGGSGGRASGGGGSEIVLTQSPGTLSLSPGERATLSCRASQSIGSSSLAWYQQKPGQAPRLLMYGASSRASGIPDRFSGSGSGTDFTLTISRLEPEDFAVYYCQQYAGSPPFTFGQGTKVEIKTTTPAPRPPTPAPTIASQPLSLRPEACRPAAGGAVHTRGLDFACDIYIWAPLAGTCGVLLLSLVITLYCKRGRKKLLYIFKQPFMRPVQTTQEEDGCSCRFPEEEEGGCELRVKFSRSADAPAYKQGQNQLYNELNLGRREEYDVLDKRRGRDPEMGGKPRRKNPQEGLYNELQKDKMAEAYSEIGMKGERRRGKGHDGLYQGLSTATKDTYDALHMQALPPR
On to B4, for which the Cell killing EC50; KMS11-luc came to 0.11 not printed; the JNL binding assay, ratio to K562; K562-BCMA is 2.91; the JNL binding assay, ratio to K562; NCI-H929 worked out at 2.79; the JNL binding assay, ratio to K562; RPMI 8226 worked out at 3.49. The Proliferation, CD3 ratio to no target; K562-BCMA was 3.94; the Proliferation, CD3 ratio to no target; KMS11-luc was found to be 3.51; the Proliferation, CD3 ratio to no target; NCI-H929 came out at 4.08; the Proliferation, CD3 ratio to no target; RPMI 8226 is 3.73. The Proliferation, CD4 ratio to no target; K562-BCMA came to 4.87; the Proliferation, CD4 ratio to no target; KMS11-luc is 3.82; the Proliferation, CD4 ratio to no target; NCI-H929 came to 4.82; the Proliferation, CD4 ratio to no target; RPMI 8226 came out at 4.24. Also, the Proliferation, CD8 ratio to no target; K562-BCMA came out at 1.89; the Proliferation, CD8 ratio to no target; KMS11-luc is 2.73; the Proliferation, CD8 ratio to no target; NCI-H929 worked out at 2.42; the Proliferation, CD8 ratio to no target; RPMI 8226 was 2.51.

B5: BCMA-5 CAR (139104) (protein)
chain: EVQLLETGGGLVQPGGSLRLSCAVSGFALSNHGMSWVRRAPGKGLEWVSGIVYSGSTYYAASVKGRFTISRDNSRNTLYLQMNSLRPEDTAIYYCSAHGGESDVWGQGTTVTVSSASGGGGSGGRASGGGGSEIVLTQSPATLSVSPGESATLSCRASQSVSSNLAWYQQKPGQAPRLLIYGASTRASGIPDRFSGSGSGTDFTLTISSLQAEDVAVYYCQQYGSSLTFGGGTKVEIKTTTPAPRPPTPAPTIASQPLSLRPEACRPAAGGAVHTRGLDFACDIYIWAPLAGTCGVLLLSLVITLYCKRGRKKLLYIFKQPFMRPVQTTQEEDGCSCRFPEEEEGGCELRVKFSRSADAPAYKQGQNQLYNELNLGRREEYDVLDKRRGRDPEMGGKPRRKNPQEGLYNELQKDKMAEAYSEIGMKGERRRGKGHDGLYQGLSTATKDTYDALHMQALPPR
For the molecule B5, the Cell killing EC50; KMS11-luc amounted to 0.21 not printed; the JNL binding assay, ratio to K562; K562-BCMA is 2.34; the JNL binding assay, ratio to K562; NCI-H929 was determined as 2.34; the JNL binding assay, ratio to K562; RPMI 8226 was determined as 2.4. Further, the Proliferation, CD3 ratio to no target; K562-BCMA came to 1.62; the Proliferation, CD3 ratio to no target; KMS11-luc turned out to be 1.61; the Proliferation, CD3 ratio to no target; NCI-H929 turned out to be 1.72; the Proliferation, CD3 ratio to no target; RPMI 8226 amounted to 1.73. For the same molecule, the Proliferation, CD4 ratio to no target; K562-BCMA was found to be 2.19; the Proliferation, CD4 ratio to no target; KMS11-luc amounted to 1.9; the Proliferation, CD4 ratio to no target; NCI-H929 stood at 2.23; the Proliferation, CD4 ratio to no target; RPMI 8226 came out at 2.15. In addition, the Proliferation, CD8 ratio to no target; K562-BCMA worked out at 0.99; the Proliferation, CD8 ratio to no target; KMS11-luc was found to be 1.27; the Proliferation, CD8 ratio to no target; NCI-H929 was found to be 1.11; the Proliferation, CD8 ratio to no target; RPMI 8226 was 1.25.

B6: BCMA-4 CAR (139103) (protein)
chain: QVQLVESGGGLVQPGRSLRLSCAASGFTFSNYAMSWVRQAPGKGLGWVSGISRSGENTYYADSVKGRFTISRDNSKNTLYLQMNSLRDEDTAVYYCARSPAHYYGGMDVWGQGTTVTVSSASGGGGSGGRASGGGGSDIVLTQSPGTLSLSPGERATLSCRASQSISSSFLAWYQQKPGQAPRLLIYGASRRATGIPDRFSGSGSGTDFTLTISRLEPEDSAVYYCQQYHSSPSWTFGQGTKLEIKTTTPAPRPPTPAPTIASQPLSLRPEACRPAAGGAVHTRGLDFACDIYIWAPLAGTCGVLLLSLVITLYCKRGRKKLLYIFKQPFMRPVQTTQEEDGCSCRFPEEEEGGCELRVKFSRSADAPAYKQGQNQLYNELNLGRREEYDVLDKRRGRDPEMGGKPRRKNPQEGLYNELQKDKMAEAYSEIGMKGERRRGKGHDGLYQGLSTATKDTYDALHMQALPPR
Turning to B6, the Cell killing EC50; KMS11-luc came to 0.13 not printed; the JNL binding assay, ratio to K562; K562-BCMA was 4.47; the JNL binding assay, ratio to K562; NCI-H929 was 3.31; the JNL binding assay, ratio to K562; RPMI 8226 turned out to be 6.25. Moreover, the Proliferation, CD3 ratio to no target; K562-BCMA was 7.37; the Proliferation, CD3 ratio to no target; KMS11-luc is 8.63; the Proliferation, CD3 ratio to no target; NCI-H929 was determined as 8.64; the Proliferation, CD3 ratio to no target; RPMI 8226 was 8.14. In addition, the Proliferation, CD4 ratio to no target; K562-BCMA is 9.21; the Proliferation, CD4 ratio to no target; KMS11-luc was found to be 8.6; the Proliferation, CD4 ratio to no target; NCI-H929 was 9.86; the Proliferation, CD4 ratio to no target; RPMI 8226 turned out to be 10.1. Further, the Proliferation, CD8 ratio to no target; K562-BCMA is 5.66; the Proliferation, CD8 ratio to no target; KMS11-luc is 8.74; the Proliferation, CD8 ratio to no target; NCI-H929 worked out at 7.42; the Proliferation, CD8 ratio to no target; RPMI 8226 turned out to be 6.19.
